Results from patent US20050255104A1.

Molecular target: human tumor necrosis factor-α (TNFα) (human) (UniProt P01375)
Experiment: cell-based or functional assay

Chain of human tumor necrosis factor-α (TNFα) (human) (P01375 77-233 limits assumed): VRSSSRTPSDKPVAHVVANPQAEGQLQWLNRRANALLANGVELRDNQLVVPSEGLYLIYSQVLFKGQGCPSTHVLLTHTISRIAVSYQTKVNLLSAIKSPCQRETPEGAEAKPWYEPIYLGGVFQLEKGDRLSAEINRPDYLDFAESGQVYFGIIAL

B1: chimeric mouse/human IgG1 anti-platelet mAb (7E3) (antibody, INN chains, looked up, V domains shown)
VH: EVQLQQSGTVLARPGASVKMSCEASGYTFTNYWMHWVKQRPGQGLEWIGAIYPGNSDTSYIQKFKGKAKLTAVTSTTSVYMELSSLTNEDSAVYYCTLYDGYYVFAYWGQGTLVTVSA
VL: EIVLTQSPVTLSVTPGDSVSLSCRASRDISNNLHWFQQTSHESPRLLIKYASQSMSGIPSRFSGSGSGTDFTLSINSVETEDFGMYFCQQTNSWPYTFGGGTKLEIK
modifications: full IgG1
- IL-6 secreted by FS-4 fibroblasts, 0.3 ng/ml rhTNF with 4 µg/ml antibody: 1.6 ng/mL
- IL-6 secreted by FS-4 fibroblasts, 1.5 ng/ml rhTNF with 4 µg/ml antibody: 1.96 ng/mL
- IL-6 secreted by FS-4 fibroblasts, 7.5 ng/ml rhTNF with 4 µg/ml antibody: 2.16 ng/mL
